Assay results reported in US20050032692A1.

Legend:
[1] = molecular target: CBP protein (CREB Binding Protein); test: cell-based or functional assay
Cdk1 protein = Cdk1 protein (UniProt P06493); test: cell-based or functional assay
Chain of Cdk1 protein (P06493 whole entry): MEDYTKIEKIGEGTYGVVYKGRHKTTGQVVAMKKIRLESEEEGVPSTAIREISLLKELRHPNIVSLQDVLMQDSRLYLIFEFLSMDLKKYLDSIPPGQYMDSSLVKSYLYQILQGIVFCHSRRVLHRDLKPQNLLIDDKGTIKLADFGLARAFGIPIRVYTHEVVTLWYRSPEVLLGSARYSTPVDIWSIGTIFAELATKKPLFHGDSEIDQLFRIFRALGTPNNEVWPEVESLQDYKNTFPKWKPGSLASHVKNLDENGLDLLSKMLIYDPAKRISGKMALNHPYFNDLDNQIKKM

Row | Substance | FoxM1B transcriptional activity (6x FoxM1B TATA-luciferase reporter, U2OS cells) (% stimulation) [1] | FoxM1B transcriptional activity (6x FoxM1B TATA-luciferase reporter, U2OS cells) (Cdk1 protein) [% reduction]
1 | T7-FoxM1B WT protein (CMV T7-FoxM1B WT) (from UniProt Q08050 1-763) | 50 | 
2 | CMV T7-FoxM1B L641A mutant protein (from UniProt Q08050 1-763) |  | 80
